Test results as given in patent publication CN111153992A (BEIJING CHEST HOSPITAL CAPITAL MEDICAL UNIV; BEIJING …, dated 2020).
Positions count from the first letter of the chain named.

T1: 结核分枝杆菌特异性重组蛋白CFP10 (Mycobacterium tuberculosis, UniProt P9WNK5 1-100)
T1 sequence (looked up): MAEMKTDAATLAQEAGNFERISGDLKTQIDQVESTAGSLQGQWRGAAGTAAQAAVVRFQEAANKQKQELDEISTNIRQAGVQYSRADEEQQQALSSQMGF

T2: 结核分枝杆菌特异性重组蛋白38KD (Mycobacterium tuberculosis, UniProt P9WGU1 24-374)
T2 sequence (looked up): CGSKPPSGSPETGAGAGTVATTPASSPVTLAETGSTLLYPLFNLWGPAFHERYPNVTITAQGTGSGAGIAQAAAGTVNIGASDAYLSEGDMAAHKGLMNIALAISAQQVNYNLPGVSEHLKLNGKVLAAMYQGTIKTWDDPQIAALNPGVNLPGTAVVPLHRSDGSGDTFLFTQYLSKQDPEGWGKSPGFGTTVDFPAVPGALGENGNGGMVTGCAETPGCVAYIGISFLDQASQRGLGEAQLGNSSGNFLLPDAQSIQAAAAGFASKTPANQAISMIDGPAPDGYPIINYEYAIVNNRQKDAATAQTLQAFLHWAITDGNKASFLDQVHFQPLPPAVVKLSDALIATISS

T3: 结核分枝杆菌特异性重组蛋白EspC (Mycobacterium tuberculosis, UniProt P9WJD7 1-103)
T3 sequence (looked up): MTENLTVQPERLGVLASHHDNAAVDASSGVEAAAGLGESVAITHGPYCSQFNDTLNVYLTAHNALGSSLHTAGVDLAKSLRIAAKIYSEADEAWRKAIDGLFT

T4: 结核分枝杆菌特异性重组蛋白MPT64 (Mycobacterium tuberculosis, UniProt P9WIN9 24-228)
T4 sequence (looked up): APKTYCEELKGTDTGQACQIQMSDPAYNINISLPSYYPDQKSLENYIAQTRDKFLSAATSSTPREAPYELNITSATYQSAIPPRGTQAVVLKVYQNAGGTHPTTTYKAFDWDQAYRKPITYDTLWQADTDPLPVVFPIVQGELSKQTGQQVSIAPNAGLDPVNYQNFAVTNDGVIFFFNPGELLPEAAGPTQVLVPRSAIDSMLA

T5: 结核分枝杆菌特异性重组蛋白MPT32 (Mycobacterium tuberculosis, UniProt P9WIR7 40-325)
T5 sequence (looked up): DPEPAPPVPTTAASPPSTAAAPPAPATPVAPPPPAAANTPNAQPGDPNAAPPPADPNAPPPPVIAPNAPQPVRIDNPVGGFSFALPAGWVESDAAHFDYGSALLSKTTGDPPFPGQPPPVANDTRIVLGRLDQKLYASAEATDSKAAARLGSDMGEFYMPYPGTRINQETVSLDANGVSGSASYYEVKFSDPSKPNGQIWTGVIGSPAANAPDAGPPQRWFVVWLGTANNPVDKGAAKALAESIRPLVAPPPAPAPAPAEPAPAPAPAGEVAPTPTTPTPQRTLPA

B1: BJRbL01 (antibody, V domains shown)
VH: QSVEESGGRLVTPGTSLTLTCTVSGFSLSNYDMGWVRQAPGKGLEWIGNIWSNGYTDYASWVNGRFTISKTSSTTMDLKMTSLTTEDMATYFCARGSSGYVGDIWGPGTLVTVSS
VL: DPVLTQTPASVEVAVGGTVTMNCQASHSVYGNNELSWYQQKPGQPPKLLVYKASTLASGVPSRFKGSGSGTQFTLTISDLECDDAAIYYCQGGYWGNRAFGGGTEVVVKG
notes: also called 兔抗LAM单克隆抗体 BJRbL01; 抗LAM抗体
B2: BJRbL03 (antibody, V domains shown)
VH: B1 VH with V3L, S29R, N30S, N49S, G54D, Y55F, I68V, T85S, M88T, A94V
VL: DPMLTQTASSVSAAVGGTVTINCQASQSVYGNNELSWYQQKPGQPPKLLIYKASTLASGVPSRFKASGSGTQFTLTISDLECDDAAIYYCQGGYWGNRAFGGGTKLEIKG
notes: also called 兔抗LAM单克隆抗体 BJRbL03; 抗LAM抗体

What was measured:
Experiment in all cases: indirect ELISA, recombinant protein coated on plate
[1] = target: T1, 结核分枝杆菌特异性重组蛋白CFP10
[2] = target: T2, 结核分枝杆菌特异性重组蛋白38KD
[3] = target: T3, 结核分枝杆菌特异性重组蛋白EspC
[4] = target: T4, 结核分枝杆菌特异性重组蛋白MPT64
[5] = target: 结核分枝杆菌特异性重组蛋白Mtb81 (Mycobacterium tuberculosis, UniProt P9WK17 1-741)
Sequence of 结核分枝杆菌特异性重组蛋白Mtb81 (P9WK17 whole entry): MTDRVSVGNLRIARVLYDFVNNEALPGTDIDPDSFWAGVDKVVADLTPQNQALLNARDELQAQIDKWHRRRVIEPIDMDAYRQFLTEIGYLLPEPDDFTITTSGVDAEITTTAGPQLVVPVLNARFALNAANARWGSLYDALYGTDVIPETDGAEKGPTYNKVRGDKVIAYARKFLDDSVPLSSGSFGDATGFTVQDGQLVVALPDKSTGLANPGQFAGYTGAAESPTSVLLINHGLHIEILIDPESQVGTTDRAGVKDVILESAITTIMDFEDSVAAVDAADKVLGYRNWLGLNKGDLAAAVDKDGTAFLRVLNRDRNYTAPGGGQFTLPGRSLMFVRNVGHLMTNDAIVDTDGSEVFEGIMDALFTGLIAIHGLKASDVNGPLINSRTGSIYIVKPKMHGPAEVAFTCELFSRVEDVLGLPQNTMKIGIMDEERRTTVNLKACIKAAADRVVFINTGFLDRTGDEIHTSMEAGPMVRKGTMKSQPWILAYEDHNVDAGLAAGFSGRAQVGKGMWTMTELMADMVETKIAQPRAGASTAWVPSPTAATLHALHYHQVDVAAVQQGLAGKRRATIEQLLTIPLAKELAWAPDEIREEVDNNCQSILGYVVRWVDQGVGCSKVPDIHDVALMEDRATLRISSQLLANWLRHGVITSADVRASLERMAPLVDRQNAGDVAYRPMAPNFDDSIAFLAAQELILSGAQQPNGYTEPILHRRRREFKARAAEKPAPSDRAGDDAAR

[6] = target: T5, 结核分枝杆菌特异性重组蛋白MPT32

Row | Binder | binding result [1] | binding result [2] | binding result [3] | binding result [4] | binding result [5] | binding result [6]
1 | B1 | no binding (tested: protein coated at 5μg/ml) | no binding (tested: protein coated at 5μg/ml) | no binding (tested: protein coated at 5μg/ml) | no binding (tested: protein coated at 5μg/ml) | no binding (tested: protein coated at 5μg/ml) | no binding (tested: protein coated at 5μg/ml)
2 | B2 | no binding (tested: protein coated at 5μg/ml) | no binding (tested: protein coated at 5μg/ml) | no binding (tested: protein coated at 5μg/ml) | no binding (tested: protein coated at 5μg/ml) | no binding (tested: protein coated at 5μg/ml) | no binding (tested: protein coated at 5μg/ml)
